{"source": "the nanobody polyreactivity screen of Harvey et al. (2022)"}
{"experiment": "yeast display, Sf9 membrane polyspecificity reagent, FACS + sequencing; frameworks hold sequencing errors", "procedure,_shortened": "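A synthetic nanobody library was expressed on Saccharomyces cerevisiae BJ5465 by galactose induction for 36–48 hours. The library was stained for 1 hour at 4 °C with 10% biotinylated, detergent-solubilized Sf9 membrane reagent and enriched with streptavidin microbeads before FACS. Low and high (top ~1%) gates were set on anti-HA fluorescence for expression and streptavidin fluorescence for reagent binding, and each polyreactivity label reflects the gate of origin.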"}
{"sequence": "QVQLVESGGGLVQAGGSLRLSCAASGSTFVVNTMGWYRQAPGKERELVATISDIGSSTDYADSVKGRFTISRDNAKNTVYLQMNSLKPEDTAVYYCAASIDDIITDDFYWVSWAYYYWGQGTQVTVSS", "polyreactivity (PSR sort gate)": "low polyreactivity"}
{"sequence": "QVQLVESGGGLVQAGGSLRLSCAASGSTFVVNVMGWYRQAPGNEMELVAAITYRSGSTYYADSVKGRFTISRDNEKNTVYLQMNSLNPEDSAVYYCAAGYYSRYYEAFEYYYWGQGTQVTVSS", "polyreactivity (PSR sort gate)": "high polyreactivity"}
{"sequence": "QVQLVESGGGLVQAGGSLRLSCAASGSTFVVYAMGWSRQAPGKERELVAAISTSDTSTYYADSVKGRFTISRDNAKNTVYLQMNSLKPEDTAVYDCAADGTYVYINEYEYWGQGTQVTVSS", "polyreactivity (PSR sort gate)": "low polyreactivity"}
{"sequence": "QVQLVESGGGLVQAGGSLRLSCAASGSTFVVYAMGWYRQAPGKERELVAAISYRAGITYYADSVKGRFTISRDNAKNTVYLQMNSLKPEDTAVYYWAADRYYGVGSGYWGQGTQVTVSS", "polyreactivity (PSR sort gate)": "high polyreactivity"}
{"sequence": "QVQLVESGGGLVQAGGSLRLSCAASGSTFVVYAMGWYRQAPGKERELVAAITTSDDSTYYADSVKGRFTISRDNAKNTVYLQMNSLKPEDTAVYYCAATLRWQDGYWGQGTQVTVSS", "polyreactivity (PSR sort gate)": "low polyreactivity"}
{"sequence": "QVQLVESGGGLVQAGGSLRLSCAASGSTFVVYAMGWYRQAPGKERELVASISSGDSTTYADSVKGRFTISRDNAKNTVYLQMNSLKPEDTAVYYCNADYAYYLDVYSPYDSWGQGTQVTVSS", "polyreactivity (PSR sort gate)": "low polyreactivity"}
{"sequence": "QVQLVESGGGLVQAGGSLRLSCAASGSTFVWYAMGWYRQAPGKERELVAAISSGGSTNYADSVKGRFTISRDNAKNTVYLQMNSLKPEDTAVYYCAAKAYFSSYWRWRGAMDHWGQGTQVTVSS", "polyreactivity (PSR sort gate)": "low polyreactivity"}
{"sequence": "QVQLVESGGGLVQAGGSLRLSCAASGSTFVYAMAWSRQAPGKERELVAAIRLRSGSTYYADSVKGRFTISRDNAKNTVYLQMNSLKPEDTAVYYCAAAIQSSKVSVKFGYWGQGTQVTVSS", "polyreactivity (PSR sort gate)": "high polyreactivity"}
{"sequence": "QVQLVESGGGLVQAGGSLRLSCAASGSTFVYAMGWYRQAPGKERELVAAITTGDSTYYADSVKGRFTISRDNAKNTVYLQMNSLKPEDTAVYYCAAQWYTRYGEYGYWGQGTQVTVSS", "polyreactivity (PSR sort gate)": "low polyreactivity"}
{"sequence": "QVQLVESGGGLVQAGGSLRLSCAASGSTFVYNAMGGYSQAPGKERELGASISRGGGITYYADSVKGRFTISRDNAKNTVYLQMNSLKPEDTAVYYCAKTKGYRGHYYYWGQGTQVTVSS", "polyreactivity (PSR sort gate)": "high polyreactivity"}
{"sequence": "QVQLVESGGGLVQAGGSLRLSCAASGSTFVYNAMGWYRQAPGKERELVAAITVIGGRTYYADSVKGRFTISRDNAKNTVYLQMNSLKPEDTAVYYCNADATESIGYYDEYEYWGQGTQVTVSS", "polyreactivity (PSR sort gate)": "low polyreactivity"}
{"sequence": "QVQLVESGGGLVQAGGSLRLSCAASGSTFVYNDMGWNRQAPGKEREFVAAITYSGSTYYADSVKGRFTISRDNAKNTVYLQMNSLKPEDTAVYYCAAEYVWRFEYWGQGTQVTVSS", "polyreactivity (PSR sort gate)": "low polyreactivity"}
{"sequence": "QVQLVESGGGLVQAGGSLRLSCAASGSTFVYNTMGWSRQAPGKERELVADITWRGASTYYADSVKGRFTISRDNAKNTVYLQMNSLKPEDTAVYYCAADYYSATGSYAYDYWGQGTQVTVSS", "polyreactivity (PSR sort gate)": "low polyreactivity"}
{"sequence": "QVQLVESGGGLVQAGGSLRLSCAASGSTFVYNVMGWYRQAPGKERELVAAITSGVRTYYADSVKGRFTISRDNAMNTVYLQMNSLKPEDTAVYYCATGLRYAKYYYWGQGTQVTVSS", "polyreactivity (PSR sort gate)": "high polyreactivity"}
{"sequence": "QVQLVESGGGLVQAGGSLRLSCAASGSTFVYYAMGLYRQAPGKERELVAAITASGGGTYYADSVKGRFTISRDNAKNPVYLQMNSLKPEVTAVYYCNRGYDYWGQGTQVTVSS", "polyreactivity (PSR sort gate)": "low polyreactivity"}
{"sequence": "QVQLVESGGGLVQAGGSLRLSCAASGSTFVYYAMGWYRQAPGKEREFVAAISYSGGNTYYADSVKGRFTISRDNAMNTVYLQMNSLKPEDTAVYYCAAYYYYFYHKVIWYELDYWGQGTQVTVSS", "polyreactivity (PSR sort gate)": "low polyreactivity"}
{"sequence": "QVQLVESGGGLVQAGGSLRLSCAASGSTFVYYAMGWYRQAPGKERELVAAINYSSGSTYYADSVKGRFTISRDNAKNTVYLQMNSLKPEDTAVYYCATDLLYYQYYSDYDYWGQGTQVTVSS", "polyreactivity (PSR sort gate)": "high polyreactivity"}
{"sequence": "QVQLVESGGGLVQAGGSLRLSCAASGSTFVYYAMGWYRQAPGKERELVAAISSSGGTTYYAVSEKGRFTISRDYGKNTGYLLMNSLKPEDTAVYFCAAPYASRGYEYWGQGTQVTVSS", "polyreactivity (PSR sort gate)": "high polyreactivity"}
{"sequence": "QVQLVESGGGLVQAGGSLRLSCAASGSTFVYYAMGWYRQAPGKERELVAAISWSGTRTYYADSVKGRFTISRDNAKNTVYLQMNSLKPEDTAVYYCAARLRANQVKLYYWGQGTQVTVSS", "polyreactivity (PSR sort gate)": "high polyreactivity"}
{"sequence": "QVQLVESGGGLVQAGGSLRLSCAASGSTFVYYAMGWYRQAPGKERELVAAITASGGRTYYADSVKGRFTISRDNAKNTVYLQMNSLKPEDTAVYYCNTVRPHGMDYWGQGTQVTVSS", "polyreactivity (PSR sort gate)": "high polyreactivity"}
{"sequence": "QVQLVESGGGLVQAGGSLRLSCAASGSTFVYYTMGCYRPAPGKETELVAAINGSGGSTYYADSVKRRFTISRDNAKNTVYLQMNSLKPEDTAVYYCDAVYWDGDDYWGQGTQVTVSS", "polyreactivity (PSR sort gate)": "high polyreactivity"}
{"sequence": "QVQLVESGGGLVQAGGSLRLSCAASGSTFWANAMGWYRPAPGKERELVAGITWNAGSTYYADSVKGRFTISRDNAKNTVYLQMNSLKPEDTAVYYCAAYYHFQGWGPGYNSWGQGTQVTVSS", "polyreactivity (PSR sort gate)": "low polyreactivity"}
{"sequence": "QVQLVESGGGLVQAGGSLRLSCAASGSTFWAYVMGWYRQAPGKERELVASISSGGSTNYADSVKGRFTISRDNAKNTVYLQMNSLKPEDTAVYYCAKRPYPYKYDYWGQGTQVTVSS", "polyreactivity (PSR sort gate)": "high polyreactivity"}
{"sequence": "QVQLVESGGGLVQAGGSLRLSCAASGSTFWDYAMGWYRQAPGKERELVAAINSGDSTNYADSVKGRFTISRDNAKNTVYFQMNSLKPEDTAVYYCNVDWYDKGYGGYDYWGQGTQVTVSS", "polyreactivity (PSR sort gate)": "low polyreactivity"}
{"sequence": "QVQLVESGGGLVQAGGSLRLSCAASGSTFWFNDMGWYRQAPGKEREFVAAISSIGGSTYYADSVKGRFTISRDNAKNTVYLQMNSLKPEDTAVYNCAVEVVRVYRYDYWGQGTQVTVSS", "polyreactivity (PSR sort gate)": "low polyreactivity"}
{"sequence": "QVQLVESGGGLVQAGGSLRLSCAASGSTFWFYALGWYRQAPGKERELVAAISSSGTTTYYADSVKGRFTISRDNAKNTVYLQINSLKPEDTAVSYCAAQYRGSYRTTYDYWGQCTQVTVSS", "polyreactivity (PSR sort gate)": "low polyreactivity"}
{"sequence": "QVQLVESGGGLVQAGGSLRLSCAASGSTFWGNAMGWYRPAPGKERELVAAISNGGSTNYADSVKGRFTISRDNAKNTVNLQMNSLKPEDTAVYYCAADGHTSNGVSLHGYWGQGTQVTVSS", "polyreactivity (PSR sort gate)": "low polyreactivity"}
{"sequence": "QVQLVESGGGLVQAGGSLRLSCAASGSTFWGNAMGWYRQAPGKERELVAAIDWSGGRTYYADSVKGRFTISRDNAKNTVYLQMNSLKPEDTAVYYCATRAWRGYVPYDYWGQGTQVTVSS", "polyreactivity (PSR sort gate)": "high polyreactivity"}
{"sequence": "QVQLVESGGGLVQAGGSLRLSCAASGSTFWGYAMGWYRQAPGKERELVAAINWIGGSDTFYADSVKGRFTISRDNAKNTVYLQMNSLKPEDTAVYYCAATYYNLPYSWGYDYWGQGTQVTVSS", "polyreactivity (PSR sort gate)": "low polyreactivity"}
{"sequence": "QVQLVESGGGLVQAGGSLRLSCAASGSTFWGYAMGWYRQAPGKERELVATINQSAGSTYYADSVKGRFTISRDYAKNTVYLQMNSLKPEDTAVYYCAAEARVQFSYDYWGQGTQVTVSS", "polyreactivity (PSR sort gate)": "low polyreactivity"}
{"sequence": "QVQLVESGGGLVQAGGSLRLSCAASGSTFWINAMGWYRPAPGKEREFVAAIRWNGGSTNYADSVKGRFTHSRDNAKNTVYLPMNSLKPEDTAVYYCAADGYIGWRHIYEYWGQGTQVTVSS", "polyreactivity (PSR sort gate)": "low polyreactivity"}
{"sequence": "QVQLVESGGGLVQAGGSLRLSCAASGSTFWKYAMGWYRQAPGKEREFVAAITRSGGNTYYADSVKGRFTISRDNAKNTVYLQMNSLKPEDTALYYCAIVYKLITSYRGFGYWGQGTQVTVSS", "polyreactivity (PSR sort gate)": "high polyreactivity"}
